Patent US8551717B2, “Method for determining sumoylation” (Medizinische Hochschule Hannover, priority 2008, dated 2013)

What was measured:
[1] = biological target: T1, p53-U (Homo sapiens, UniProt P04637+P63279); assay: Trans-SUMOylation by p53-U; format: cell-based; settings: western blot
T1 construct: expressed in transfected cells; host or cells: HEK293

[2] = biological target: T2, JUN-U (Homo sapiens, UniProt P05412+P63279); assay: Trans-SUMOylation by JUN-U; format: cell-based; settings: protein 2 construct coexpressed with JUN-U and EGFP-SUMO1 in HEK293, western blot
T2 construct: expressed in transfected cells; host or cells: HEK293
T2 sequence (P05412+P63279 fused): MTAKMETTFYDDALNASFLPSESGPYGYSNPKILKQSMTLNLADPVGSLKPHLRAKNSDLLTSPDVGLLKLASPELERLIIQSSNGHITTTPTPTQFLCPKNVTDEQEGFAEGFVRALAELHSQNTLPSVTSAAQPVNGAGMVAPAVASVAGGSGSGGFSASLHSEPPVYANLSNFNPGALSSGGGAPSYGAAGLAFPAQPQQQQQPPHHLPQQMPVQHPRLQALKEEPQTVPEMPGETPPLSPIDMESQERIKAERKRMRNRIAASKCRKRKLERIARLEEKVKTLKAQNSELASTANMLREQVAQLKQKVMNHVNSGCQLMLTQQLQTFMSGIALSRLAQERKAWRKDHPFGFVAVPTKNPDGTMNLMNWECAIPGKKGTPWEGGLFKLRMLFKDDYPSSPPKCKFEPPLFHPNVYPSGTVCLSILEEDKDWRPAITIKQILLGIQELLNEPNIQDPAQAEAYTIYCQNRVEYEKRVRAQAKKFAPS

[3] = biological target: T3, Ubc9-FKBP (Homo sapiens, UniProt P42345+P63279); assay: USDDS specificity for SUMOylation sites (K-to-R mutants), western blot; format: cell-based; settings: HEK293, coexpressed with Ubc9-FKBP and EGFP-SUMO1, stimulated with AP21967 1 μM
T3 construct: expressed in transfected cells; host or cells: HEK293
T3 sequence (P63279 with tags, fused parts or gaps): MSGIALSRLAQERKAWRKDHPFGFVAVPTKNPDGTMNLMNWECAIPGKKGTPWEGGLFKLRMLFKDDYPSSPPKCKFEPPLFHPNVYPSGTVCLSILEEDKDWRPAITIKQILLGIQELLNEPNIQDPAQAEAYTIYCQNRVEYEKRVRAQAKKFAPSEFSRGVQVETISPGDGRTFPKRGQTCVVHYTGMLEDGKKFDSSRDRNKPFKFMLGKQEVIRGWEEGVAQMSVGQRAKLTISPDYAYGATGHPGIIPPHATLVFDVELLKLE
T3 sequence (P42345 2021-2113 limits assumed): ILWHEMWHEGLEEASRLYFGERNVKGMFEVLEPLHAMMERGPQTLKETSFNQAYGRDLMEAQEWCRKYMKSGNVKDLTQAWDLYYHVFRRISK

[4] = test system: STAT1; assay: Interplay of STAT1 Y701 phosphorylation and K703 SUMOylation by USDDS, western blot; format: cell-based, human; settings: HEK293, USDDS with AP21967 1 μM and interferon-β, any stimulation scenario
[5] = biological target: T4, U-CDC37 (Homo sapiens, UniProt P63279+Q16543); assay: Trans-SUMOylation by U-CDC37; format: cell-based; set-up: key: (++), strong TransSUMOylation; (+), TransSUMOylation; (+/−) weak TransSUMOylation; (−) no detectable TransSUMOylation; settings: protein 2 construct coexpressed with U-CDC37 and EGFP-SUMO1 in HEK293; western blot; Table 1
T4 construct: expressed in transfected cells; host or cells: HEK293
T4 sequence (P63279+Q16543 fused): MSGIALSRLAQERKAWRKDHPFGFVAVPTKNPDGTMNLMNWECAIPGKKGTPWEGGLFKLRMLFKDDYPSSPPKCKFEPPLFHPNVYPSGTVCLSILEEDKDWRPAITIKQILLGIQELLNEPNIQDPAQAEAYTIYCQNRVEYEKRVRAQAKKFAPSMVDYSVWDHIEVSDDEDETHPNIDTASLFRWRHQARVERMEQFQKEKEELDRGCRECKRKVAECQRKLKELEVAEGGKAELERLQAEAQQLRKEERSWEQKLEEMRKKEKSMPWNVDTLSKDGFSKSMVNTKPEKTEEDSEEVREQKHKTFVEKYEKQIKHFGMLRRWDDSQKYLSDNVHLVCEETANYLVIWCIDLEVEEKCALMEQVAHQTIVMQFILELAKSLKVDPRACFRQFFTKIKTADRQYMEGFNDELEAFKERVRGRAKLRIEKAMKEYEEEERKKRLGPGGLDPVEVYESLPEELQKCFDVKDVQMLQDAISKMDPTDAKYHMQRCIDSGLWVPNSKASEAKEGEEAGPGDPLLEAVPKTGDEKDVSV
Text: (§1) To identify new SUMOylation substrates and to study the function of SUMOylation the Ubc9/substrate dimerisation-dependent SUMOylation system (USDDS) was developed which consists of fusions of the SUMOylation substrate and of the SUMO-conjugating enzyme Ubc9 to the chemically activatable heterodimerisation domains FKBP and FRB, respectively, as shown in FIG. 2. When the substrate protein fused to FKBP is coexpressed with Ubc9-FRB, treatment of HEK293 cells with the rapamycin-related dimerizer AP21967 induces SUMOylation of the substrate protein fused to FKBP at its specific SUMOylation site. […] Dependent on an EcoRl site in the coding sequence, seven C-terminal amino acids of the human STAT1a in the STAT1-FKBP/FRB fusion proteins are missing. For the SUMOylation analysis HEK293 (human embryonic kidney cells) cells have been used. HEK293 cells were cultured in Dulbecco's modified Eagle's medium with high glucose, complemented with 10% fetal calf serum, 2 mM L-glutamine, 100 U/ml penicillin and […] streptomycin. […]
(§2) As shown above, the SUMOylation of a protein of interest can be induced by the heterodimerisation with a binding protein fused to Ubc9. […] Therefore the protein pairs were coexpressed with EGFP-SUMO1 in HEK293 cells and after 24h the transfectants were lysed and the protein extracts were analyzed in western blots. […]

[6] = biological target: T5, U-MK5 (Homo sapiens, UniProt P63279+Q8IW41); assay: Trans-SUMOylation by U-MK5; format: cell-based; set-up: key: (++), strong TransSUMOylation; (+), TransSUMOylation; (+/−) weak TransSUMOylation; (−) no detectable TransSUMOylation; settings: protein 2 construct coexpressed with U-MK5 and EGFP-SUMO1 in HEK293; western blot; Table 2
T5 construct: expressed in transfected cells; host or cells: HEK293
T5 sequence (P63279+Q8IW41 fused): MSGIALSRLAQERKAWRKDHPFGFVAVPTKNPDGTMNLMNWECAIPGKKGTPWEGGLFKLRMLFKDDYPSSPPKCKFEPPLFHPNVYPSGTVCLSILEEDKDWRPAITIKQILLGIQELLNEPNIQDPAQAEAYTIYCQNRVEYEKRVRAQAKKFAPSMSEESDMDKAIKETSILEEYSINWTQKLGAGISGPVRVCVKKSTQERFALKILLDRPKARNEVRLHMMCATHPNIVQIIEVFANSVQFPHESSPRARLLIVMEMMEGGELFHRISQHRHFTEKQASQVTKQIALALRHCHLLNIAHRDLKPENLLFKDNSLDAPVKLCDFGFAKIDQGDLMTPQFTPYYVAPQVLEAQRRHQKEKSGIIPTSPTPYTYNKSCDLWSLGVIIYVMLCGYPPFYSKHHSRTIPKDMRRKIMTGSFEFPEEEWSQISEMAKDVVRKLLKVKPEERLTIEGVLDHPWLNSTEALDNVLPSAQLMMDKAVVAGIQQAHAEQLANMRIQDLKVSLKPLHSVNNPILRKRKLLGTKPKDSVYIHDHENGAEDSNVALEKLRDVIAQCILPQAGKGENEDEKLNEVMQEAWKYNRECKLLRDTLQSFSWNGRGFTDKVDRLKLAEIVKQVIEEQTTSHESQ
Text: as §1, §2

[7] = biological target: T6, MK2-U (Homo sapiens, UniProt P49137+P63279); assay: Trans-SUMOylation by MK2-U; format: cell-based; settings: protein 2 construct coexpressed with MK2-U and EGFP-SUMO1 in HEK293; western blot; Table 2
T6 construct: expressed in transfected cells; host or cells: HEK293
T6 sequence (P49137+P63279 fused): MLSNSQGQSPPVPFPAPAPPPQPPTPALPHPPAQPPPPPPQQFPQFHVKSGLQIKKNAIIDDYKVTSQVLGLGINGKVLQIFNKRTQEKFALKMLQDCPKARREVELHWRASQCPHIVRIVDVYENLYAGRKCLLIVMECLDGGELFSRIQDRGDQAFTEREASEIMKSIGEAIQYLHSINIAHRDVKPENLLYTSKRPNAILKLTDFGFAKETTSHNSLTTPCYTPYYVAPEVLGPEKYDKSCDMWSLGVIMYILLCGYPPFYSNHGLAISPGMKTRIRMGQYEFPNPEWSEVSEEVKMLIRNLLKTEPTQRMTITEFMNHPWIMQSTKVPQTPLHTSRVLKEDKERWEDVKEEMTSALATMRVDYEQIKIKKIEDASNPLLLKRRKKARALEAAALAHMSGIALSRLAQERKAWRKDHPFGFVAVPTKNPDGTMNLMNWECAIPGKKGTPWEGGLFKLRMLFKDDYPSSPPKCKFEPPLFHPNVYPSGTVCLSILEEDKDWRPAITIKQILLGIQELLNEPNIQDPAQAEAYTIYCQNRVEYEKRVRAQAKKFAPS

[8] = biological target: T7, U-p38α (Homo sapiens, UniProt P63279+Q16539); assay: Trans-SUMOylation by U-p38α; format: cell-based; settings: protein 2 construct coexpressed with U-p38α and EGFP-SUMO1 in HEK293; western blot; Table 2
T7 construct: expressed in transfected cells; host or cells: HEK293
T7 sequence (P63279+Q16539 fused): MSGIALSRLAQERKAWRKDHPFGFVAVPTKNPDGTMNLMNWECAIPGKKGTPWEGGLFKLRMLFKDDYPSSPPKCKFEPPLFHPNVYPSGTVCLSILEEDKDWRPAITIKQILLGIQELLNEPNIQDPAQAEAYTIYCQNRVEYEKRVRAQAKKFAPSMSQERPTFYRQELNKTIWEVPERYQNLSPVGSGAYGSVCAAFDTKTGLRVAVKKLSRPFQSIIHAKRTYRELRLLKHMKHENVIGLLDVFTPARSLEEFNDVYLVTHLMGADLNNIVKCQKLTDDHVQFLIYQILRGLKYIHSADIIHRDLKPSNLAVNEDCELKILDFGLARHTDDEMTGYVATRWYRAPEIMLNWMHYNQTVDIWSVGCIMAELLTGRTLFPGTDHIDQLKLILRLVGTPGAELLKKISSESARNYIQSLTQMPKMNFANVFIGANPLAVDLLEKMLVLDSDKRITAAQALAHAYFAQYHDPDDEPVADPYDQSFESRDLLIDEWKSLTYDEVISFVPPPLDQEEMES

[9] = biological target: T8, U-MK2 (Homo sapiens, UniProt P49137+P63279); assay: Trans-SUMOylation by U-MK2; format: cell-based; settings: protein 2 construct coexpressed with U-MK2 and EGFP-SUMO1 in HEK293; western blot; Table 2
T8 construct: expressed in transfected cells; host or cells: HEK293
T8 sequence (P63279+P49137 fused): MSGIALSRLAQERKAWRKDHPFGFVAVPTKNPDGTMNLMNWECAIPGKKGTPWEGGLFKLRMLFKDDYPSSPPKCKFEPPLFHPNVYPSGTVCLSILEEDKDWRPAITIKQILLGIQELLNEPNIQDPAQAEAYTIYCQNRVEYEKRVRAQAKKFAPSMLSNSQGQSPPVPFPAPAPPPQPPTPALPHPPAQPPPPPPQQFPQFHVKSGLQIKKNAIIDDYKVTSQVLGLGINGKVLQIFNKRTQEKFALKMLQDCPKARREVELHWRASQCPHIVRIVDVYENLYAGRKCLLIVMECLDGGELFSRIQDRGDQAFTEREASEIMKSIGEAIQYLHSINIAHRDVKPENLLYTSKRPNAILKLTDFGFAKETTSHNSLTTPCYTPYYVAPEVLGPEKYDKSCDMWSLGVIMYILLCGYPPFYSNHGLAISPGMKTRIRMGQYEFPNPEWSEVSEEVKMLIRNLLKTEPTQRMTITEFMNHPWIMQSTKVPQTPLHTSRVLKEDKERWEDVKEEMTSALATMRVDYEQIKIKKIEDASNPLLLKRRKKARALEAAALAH

[10] = protein 2 construct coexpressed with p53-U and EGFP-SUMO1 in HEK293, Table 2

B1: HA-JNK1: JNK1 fused to HA tag (protein)
chain: MSRSKRDNNFYSVEIGDSTFTVLKRYQNLKPIGSGAQGIVCAAYDAILERNVAIKKLSRPFQNQTHAKRAYRELVLMKCVNHKNIIGLLNVFTPQKSLEEFQDVYIVMELMDANLCQVIQMELDHERMSYLLYQMLCGIKHLHSAGIIHRDLKPSNIVVKSDCTLKILDFGLARTAGTSFMMTPYVVTRYYRAPEVILGMGYKENVDLWSVGCIMGEMVCHKILFPGRDYIDQWNKVIEQLGTPCPEFMKKLQPTVRTYVENRPKYAGYSFEKLFPDVLFPADSEHNKLKASQARDLLSKMLVIDASKRISVDEALQHPYINVWYDPSEAEAPPPKIPDKQLDEREHTIEEWKELIYKEVMDLEERTKNGVIRGQPSPLAQVQQ
modifications: left off: small tags and cut ends
notes: JNK1 fused to HA tag
[1]; protein 2 construct coexpressed with P53-U (p53-U) and EGFP-SUMO1 in HEK293, Table 1
  Trans-SUMOylation: −
[2]; Table 1
  Trans-SUMOylation: −

B2: STAT1K703R-FRB: STAT1 SUMOylation site mutant K703R fused to FRB (protein, UniProt P42224 2-750, looked up, variant K703R)
Signal transducer and …: SQWYELQQLDSKFLEQVHQLYDDSFPMEIRQYLAQWLEKQDWEHAANDVSFATIRFHDLLSQLDDQYSRFSLENNFLLQHNIRKSKRNLQDNFQEDPIQMSMIIYSCLKEERKILENAQRFNQAQSGNIQSTVMLDKQKELDSKVRNVKDKVMCIEHEIKSLEDLQDEYDFKCKTLQNREHETNGVAKSDQKQEQLLLKKMYLMLDNKRKEVVHKIIELLNVTELTQNALINDELVEWKRRQQSACIGGPPNACLDQLQNWFTIVAESLQQVRQQLKKLEELEQKYTYEHDPITKNKQVLWDRTFSLFQQLIQSSFVVERQPCMPTHPQRPLVLKTGVQFTVKLRLLVKLQELNYNLKVKVLFDKDVNERNTVKGFRKFNILGTHTKVMNMEESTNGSLAAEFRHLQLKEQKNAGTRTNEGPLIVTEELHSLSFETQLCQPGLVIDLETTSLPVVVISNVSQLPSGWASILWYNMLVAEPRNLSFFLTPPCARWAQLSEVLSWQFSSVTKRGLNVDQLNMLGEKLLGPNASPDGLIPWTRFCKENINDKNFPFWLWIESILELIKKHLLPLWNDGCIMGFISKERERALLKDQQPGTFLLRFSESSREGAITFTWVERSQNGGEPDFHAVEPYTKKELSAVTFPDIIRNYKVMAAENIPENPLKYLYPNIDKDHAFGKYYSRPKEAPEPMELDGPKGTGYIRTELISVSEVHPSRLQTTDNLLPMSPEEFDEVSRIVGSVEFDSMMNTV
modifications: fused to FRB domain
[3]
  SUMOylation of mutant fusion protein: nearly no SUMOylation

B3: STAT1-FRB: human STAT1a fused to FRB (T2098L) heterodimerisation domain (protein)
chain: MSQWYELQQLDSKFLEQVHQLYDDSFPMEIRQYLAQWLEKQDWEHAANDVSFATIRFHDLLSQLDDQYSRFSLENNFLLQHNIRKSKRNLQDNFQEDPIQMSMIIYSCLKEERKILENAQRFNQAQSGNIQSTVMLDKQKELDSKVRNVKDKVMCIEHEIKSLEDLQDEYDFKCKTLQNREHETNGVAKSDQKQEQLLLKKMYLMLDNKRKEVVHKIIELLNVTELTQNALINDELVEWKRRQQSACIGGPPNACLDQLQNWFTIVAESLQQVRQQLKKLEELEQKYTYEHDPITKNKQVLWDRTFSLFQQLIQSSFVVERQPCMPTHPQRPLVLKTGVQFTVKLRLLVKLQELNYNLKVKVLFDKDVNERNTVKGFRKFNILGTHTKVMNMEESTNGSLAAEFRHLQLKEQKNAGTRTNEGPLIVTEELHSLSFETQLCQPGLVIDLETTSLPVVVISNVSQLPSGWASILWYNMLVAEPRNLSFFLTPPCARWAQLSEVLSWQFSSVTKRGLNVDQLNMLGEKLLGPNASPDGLIPWTRFCKENINDKNFPFWLWIESILELIKKHLLPLWNDGCIMGFISKERERALLKDQQPGTFLLRFSESSREGAITFTWVERSQNGGEPDFHAVEPYTKKELSAVTFPDIIRNYKVMAAENIPENPLKYLYPNIDKDHAFGKYYSRPKEAPEPMELDGPKGTGYIKTELISVSEVHPSRLQTTDNLLPMSPEEFDEVSRIVGSVEFILWHEMWHEGLEEASRLYFGERNVKGMFEVLEPLHAMMERGPQTLKETSFNQAYGRDLMEAQEWCRKYMKSGNVKDLLQAWDLYYHVFRRISK
[4]
  double modification of STAT1 by SUMOylation and Y701 phosphorylation: no double modification

B4: GST-CDK4: CDK4 fused to GST tag (protein, UniProt P11802 2-303, looked up)
Cyclin-dependent kinase 4: ATSRYEPVAEIGVGAYGTVYKARDPHSGHFVALKSVRVPNGGGGGGGLPISTVREVALLRRLEAFEHPNVVRLMDVCATSRTDREIKVTLVFEHVDQDLRTYLDKAPPPGLPAETIKDLMRQFLRGLDFLHANCIVHRDLKPENILVTSGGTVKLADFGLARIYSYQMALTPVVVTLWYRAPEVLLQSTYATPVDMWSVGCIFAEMFRRKPLFCGNSEADQLGKIFDLIGLPPEDDWPRDVSLPRGAFPPRGPRPVQSVVPEMEESGAQLLLEMLTFNPHKRISAFRALQHSYLHKDEGNPE
modifications: GST tag
[1]; [10]
  Trans-SUMOylation: −
[5]
  Trans-SUMOylation: +

B5: GST-DRG1: DRG1 fused to GST tag (protein)
chain: MSSTLAKIAEIEAEMARTQKNKATAHHLGLLKARLAKLRRELITPKGGGGGGPGEGFDVAKTGDARIGFVGFPSVGKSTLLSNLAGVYSEVAAYEFTTLTTVPGVIRYKGAKIQLLDLPGIIEGAKDGKGRGRQVIAVARTCNLILIVLDVLKPLGHKKIIENELEGFGIRLNSKPPNIGFKKKDKGGINLTATCPQSELDAETVKSILAEYKIHNADVTLRSDATADDLIDVVEGNRVYIPCIYVLNKIDQISIEELDIIYKVPHCVPISAHHRWNFDDLLEKIWDYLKLVRIYTKPKGQLPDYTSPVVLPYSRTTVEDFCMKIHKNLIKEFKYALVWGLSVKHNPQKVGKDHTLEDEDVIQIVKK
modifications: left off: a dimerising Fc or GST
notes: DRG1 fused to GST tag
[1]; [10]
  Trans-SUMOylation: −
[2]; Table 2
  Trans-SUMOylation: −
[6]
  Trans-SUMOylation: −
[7]
  Trans-SUMOylation: −
[8]
  Trans-SUMOylation: −
[9]
  Trans-SUMOylation: −
